Values quoted from earlier work as cited in publication PMC6953883, “Alterations of aqueous humor Aβ levels in Aβ-infused and transgenic mouse models of Alzheimer disease” (PLoS ONE, 2020).

Settings: previous studies

Substance: Aβ: amyloid-β peptide of cited efflux and retention studies; Shibata et al. used Aβ(1-40)
- half-time of Aβ efflux from CSF to blood: 34.63 min
